Here are results for 68 sequences from the domain aggregation screens of Martell et al. (2025).

Where only a bound is given, the exact number is not on record here.

The nature of this data set: soluble fraction after stress (log2 fold change); higher = more stays soluble; pooled small domains, quantitative proteomics. Conditions: stress: pH 4. In outline:
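Aggregation propensity is estimated from the fold change in each domain's soluble amount after acid stress. Pooled small-domain libraries were stressed at pH 4, and higher log2 values mean more stayed soluble.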
“HMVIPATPTARRAKIAGLLADRSVRSQGELLTLLADAGIEVTQATLSRDLEALGAVKVRDGRGLVYAVPG”: the “soluble fraction (log2)” value was found to be 0.365. Take “HMVIQRQIPPLVTRMLDGLEQFIQLDMPFDLDTRLGNIEAVRANMDRSDVTSAEAYRQVLELYSIELQ”: the “soluble fraction (log2)” value is -0.0525. The result for “HMVISLREINLIGVYGRPNARRALVRLSNGRYVRVEVGSDLDGGKVTAIGDEALNFVKRGRTYAIQLPA” reads -0.324; that for “HMVITPESVKEQVLAIISKSPAQGFNYKQISKRLNINDPSERKMVSDILRELSESGTIEEINKGKYRAKV”, -0.055; that for “HMVKDYIQVTVNKEPVILKGKKDYIFIDIFNYIEFDLTIPKGSLYLLLNGKNAGYHDKLLDGDVIELGW”, -1.63. The result for “HMVKLDDLTGQDKASAEAAISNLGLKYSEQQEYSDEIEEGKVTRTDPGAGSTSLKAGDTVTVYISRGPE” reads -0.348. The result for “HMVKLSATVKELLDFVIAKKTVTSSNVSKHFDISAQNASGRLKKLHATGLVLGQKEVAESGGLEFVYRS” reads -0.208; that for “HMVKLSDGIVEHIKSLIMAGRLKPGDKLPPEREFAATLGVSRTALREAVRTLSLMGLLDARQGEGTFVSG”, 0.313; that for “HMVKPQANTIYKEYIKYRANLQNKNEFLSFSEYAKQKHNLEQMSEIMVDANLKEEMLETLKEMS”, 0.0548. On to “HMVKSDLVGHRFILVEDVTPKLTPKYHYSGINWKLITTDNLVAGTRVEVIQVDVGKFHIKAIK”, for which the “soluble fraction (log2)” value was -0.82. Turning to “HMVKSIDEIYNEAVKSLANEDYDAAKKLFNYLINNFSDPDKFPLSLFWLAEIEFSSSNFDASKNYYMQ”, the “soluble fraction (log2)” value is -0.225. The result for “HMVKSSVTEVISMINALPVTVKPEDKADIISARMAYDTLTEDEKALVTNYEILTAAETRFNELIATT” reads -0.101; that for “HMVKTIINGEEKDFDAQDFQTFGDFLKKVIPEGQILKSLKINSKDVPIAFIDELKSATVDENITIEMELA”, 0.315. Consider “HMVLAEPLSERELDILRLLAAGDSNKEIAAVLYITEGTVKNHVTNILGKLDARDRTQAALRARELGL”, for which the “soluble fraction (log2)” value is -0.373. The result for “HMVLGDQTFQSASAPKVFFGGDAAYGPKNIITAVAHGHDAAVSIDRFLHGEDVSKRPGPQVNLVS” reads 0.207; that for “HMVLRPDDVEDSLWREWVSHRKAKRAAVTEGVLKTFRQEATKASFTLADAMRKSIDRGWTGFEAEWVARET”, -0.325. The result for “HMVLSPAQVRRALMVSGLFTEARVARQLGVPMDLKQILRIILRNTPPQSAMARELESAIDEIESRNAMRD” reads -0.844; that for “HMVLSTRERMSNILATLKGGHFVNFSDLFTPEEGRLGVVVTFLAMLELIKESLLDIVQHEVLGPIHVKARV”, 0.0323; that for “HMVLTGTIKKYNNERGFGFISTSNFGDVFFHIKDFQKGEQPIPGREVYFEVVKKENKKRAIHVYYSD”, -0.243.

Consider “HMVLVSNYGEVVRKARERKGLDHGSLAMKISEKKSIITSVESGNMKPNEKLIKKLENFLNINLM”, for which the “soluble fraction (log2)” value is -0.471.

In the case of “HMVMIPDLVGETIEDAKDILEGLGFEVEVRSEFPESDWGRPFARVTSLSPSAGQEVAKGTLVIIRSF”, the “soluble fraction (log2)” value is -0.144. Consider “HMVMLIVMNHTASQADIDKVIEVVSGMGFTAAPIPGGERTAIGVLGNKGYVDDSTIRDLPGVQQAIHVSKP”, for which the “soluble fraction (log2)” value was -0.301. With “HMVMSVGENIAYFRKKLGLTQEMLSERIGVTAQAVSKWENGVTNPDISLLPRISEALGIGIGDLFD”, the “soluble fraction (log2)” value was -0.218. The result for “HMVNAVKFAIEKMPYKYSSLLTLKYVMGYSGKEIAEITGLSETNVRQQLLKGRKLLESMLEE” reads -0.105. On to “HMVNGTPADPYDVLGVESSASPEELRAAWQTLVRQNHPDQLMARGVPLEAVKLAEARLVAINQAWDDLTK”, for which the “soluble fraction (log2)” value is -1.33. The result for “HMVNHVGITVSNLERSIQFYEALTGKKIANQDTIGGKRMAQTQGLADTLIKYANLHLDNLNIDLLEYVE” reads -0.448; that for “HMVNIAVMTVSDTRTEADDKSGSLLVSKIEGDGHVLADRAIITDDVPRIIAKLKEWIESPQVDVVVT”, -0.606. “HMVNINEVEVSRDLAHAKVFVTFVGDRTDEINTQALKVLNAAQGFLRSRIASNNHMRTTPRIHF”: the “soluble fraction (log2)” value was -0.214. The result for “HMVNIPEIAKKFGKSTSEVFEQIQIGEKHEMEHTNDPKKARKIALDHLSDDMDYYKKLKKLG” reads no less than 0.43; that for “HMVNLKQVELREHHPWVGHKIKELDISRHTLIVMIRRGDNAIVPNGDTLIKSGDIVFVFSKR”, -0.839. As to “HMVNPHPVYRSWGLLYVEARDGDSLESIAKEFGFSVKKLAKYNEVPKDYPLEAGDIVYLEKKKK”, the “soluble fraction (log2)” value came out at 0.019. “HMVNPIDFYLLFRTELQRLAEHPITVDRLTEVTGLNKLQVLDWLKRAEQDGLVKKLNRPTRYQLN”: the “soluble fraction (log2)” value is -0.536. The result for “HMVPAMGSLTLIKGGVNLRNAPGGLTIAQLDRGLVLSYTKFVQKDGYTWYLVNSPKGTGYVRSDVVQLGS” reads -0.3; that for “HMVPDGFDQLTEREYQVAMAVGKGLNNKEIASQLGLGERTVKAHLTTTFEKLHVRDRVQLALIVNRL”, -0.404. The result for “HMVPDVVGKDYALAQAELEGANLVVAKGSSRYDDTLPAGVVLATDPKVGTVVKPGAKVTVILSK” reads 0.268; that for “HMVPLSMLTEGQIFRGQVLDITSQGIKIQLNPEQILFARLGEQVELNIGQQMAFQVRENKGDQLIIHPMQN”, -1.18; that for “HMVPVQLTPRELQVARLAAHGASSPEIAAELRVSRRTVDNQLGRVYAKLGIAGRAELAAALSRLPVSV”, no less than 0.43.

Turning to “HMVPVSIYAYNKIKTAILNNELMPGEKLVEASLAETLNMSRTPIREALRQLEQEGFVTYYPQKGSIVSH”, the “soluble fraction (log2)” value is -0.91.

Consider “HMVQAQGARIREARVQRGLSQAQLGEPRYSGSYISHIENGRRSPGTDVLAFIAARLGLEPGALDS”, for which the “soluble fraction (log2)” value is -0.164.

Consider “HMVQIFIPVVHDDHWFLIVFSREEDTFYVLDSLPSLSRISTINGIISTLKEHLQQASVGPQYSVKVLPVK”, for which the “soluble fraction (log2)” value stood at 0.144.

Consider “HMVQLAEGERYRRIQEANDFINRQQWPGKAAMGRLKDTEKAQYNLWLDYLDALEAVDTSSAPKINWPVPPE”, for which the “soluble fraction (log2)” value was -0.156. The result for “HMVQQAVNMAKPGKLFTGPSPTSKALRDLDAGAMLYPTGEKQGPFWKVQDELGNEGWVAMGLLQLA” reads -0.0346. For the sequence “HMVQVDNELTEFSVQSITRGIDALGEVTIRVTAPDGGVYTGRGADNDIIVSSTKAYLNALNRLLNDK”, the “soluble fraction (log2)” value is -0.552. Regarding “HMVQYVDFVKRMIEELPWWHRRMLELKYLDGLTYEEIADELQVPVGTVKGTLHRAKELFQEILKNN”, the “soluble fraction (log2)” value was -1.71. For the sequence “HMVRDPYELLEVPREATPDEIKSAFRKLAARHHPDRNPDDPGAQERFKEINAAYQLLSDPQKRAMFDRFGA”, the “soluble fraction (log2)” value is 0.331. Consider “HMVRKIQAKLVLRLHAQGLSGRAIARSQGMSRRSVSDVLDAARAVGVGWDDVTGKTDGEVYALLFPGRG”, for which the “soluble fraction (log2)” value was determined as 0.0261. On to “HMVRKIRARLVLQLRAEGLSGRAIAGSQGMSRKSVTAVLDAADRAGIGWDEIAERSEGEVYALLFPGRG”, for which the “soluble fraction (log2)” value was -1.18. The result for “HMVRQKYKSNFITVGDKSLTIHDWAQRLNLSQYALRNRYKEFGKEWVEKAIKTILETGDNTHIYK” reads 0.0662; that for “HMVRSLADQVYERLRRNIVSGDLAPNARIVELDIAAQMGTSQGPVREALQRLEREGLVQRRAHSATFVTD”, -0.324. As to “HMVRVSELAIEPRLVVEETATGFVGAVVRYANGLIELEDRHGAVRTFPLGPGYLVDGRPVSLVKPT”, the “soluble fraction (log2)” value is -0.35. The result for “HMVSEDELLARIALLPYPQAKILLEERLSHDPANAKVRQLYLELAKKSGDHTEVTRHNSLLY” reads 0.0149; that for “HMVSKIEAPLPGIILSVDVKEGDTVKAGDKLMVMEAMKMENAILAETNGVVKSIKVKIQDSVLQGDILAEI”, -1.07; that for “HMVSKSDVQRALEKVEPVLRKLGGSTVEKVRVMARQATLVFEMLKSWWKGEIDLPWKTVAAMTVTLLYL”, -0.322. Take “HMVSLNKTEFIAVKKASASELRDKINSLGLDVLKDATISADARTNQIIATGPKYALEQIKMLVVGLDVSS”: the “soluble fraction (log2)” value stood at 0.313. Turning to “HMVSLRQQVYDYLRSQMNQGELRPGSAINLGEMSSRFGISRTPLREALLQLETEGFVTIYPRKGIIVN”, the “soluble fraction (log2)” value was -0.243. The result for “HMVSLTGEWRPSKDALDILITKGGINPNFIDDAVPEFILYWRDRGDVSNTWDSKFIQHVRRQWQFYTGI” reads -1.66. “HMVSMSFDDYVNDAKEYESEGDKDKAYNSYLEAYKLNKSSEEVLDYLIDNTEDVTLKLNYVYEYLDL”: the “soluble fraction (log2)” value was -0.32. The result for “HMVSNFEAEFGRHFAIFFPGSEFTELKLRLLEEGAELIDPIRDTPFERFFFKDPNGYIFEVIDKE” reads -2.33; that for “HMVSNRMVYSDFQQKWINNQVESINVNADKMTIEVTTQDEKKYTVYAPSSMIEFLNEQYPKDDIKIEYVAP”, -0.94; that for “HMVSPLEKSQSFGSFEISREFARTLGLTSARNWENWAASDSRPINIPYSPNVFYKNKGWIDWSDWLGTE”, -0.124. The result for “HMVSRQINVIPDDLAGLRLDQALAHLFPQHSRSRLKEWLLEDIIIVQGGPKRPKDIVSGGEIVEIKL” reads -1.2. The result for “HMVSYTLPTLHTGKNWYVDFTAYDPAEQKMKRKKYMLDGISKITERRKRAVDIIATVTARLRSGWNPWA” reads 0.0419; that for “HMVTARMPDLFGLDEATAQRMVSNAGLTLKTEYAYSDQAEGYVFDQTPEANAEVRRGGTVTAMIS”, -0.375.

On to “HMVTEIDYGAFIKMTEEGNIGEVKIEDNQIVFTDKENKAIYKTGIMPDSDLTQRLYDSGAVFA”, for which the “soluble fraction (log2)” value was -1.27. Regarding “HMVTEKPLYRDELMDHDTVWVEPISMDSHLRMELRGWYHVKNRFVENEVGQRFYFDFYDIKWLAFTNGP”, the “soluble fraction (log2)” value was no less than 0.43. The result for “HMVTINTASLEKAIADAKAVVKESYTTDSYNAMKAVLDEAEDLLKEEAQDQDTIDAKTEALNAAIEALVKR” reads -0.337; that for “HMVTLPLLKRGHTGLPVKALQTLLVLRGMSVDVDGSFGEKTESAVRTFQTAAKILSDGEVGKDTWKALI”, -0.911; that for “HMVTPPMVVVDVQGEVKTPGVYHLPTNSRVNDAIKAAGGPKQSADLSYINQARMVKDGEQIYVEKKL”, 0.0679.
